The text below walks through data of patent publication US20060199780A1.

What all share (test): cell-based or functional assay
Assay [1] addresses B7-2 (CD28 ligand) on mouse lymph node accessory cells (mouse) (UniProt P42082).
Assay [2] deals with B7-1 (CD28 ligand) on mouse lymph node accessory cells (mouse) (UniProt Q00609).
In a further assay the target is Fas (human) (UniProt P25445).
UniProt P25445, sequence (P25445 26-335): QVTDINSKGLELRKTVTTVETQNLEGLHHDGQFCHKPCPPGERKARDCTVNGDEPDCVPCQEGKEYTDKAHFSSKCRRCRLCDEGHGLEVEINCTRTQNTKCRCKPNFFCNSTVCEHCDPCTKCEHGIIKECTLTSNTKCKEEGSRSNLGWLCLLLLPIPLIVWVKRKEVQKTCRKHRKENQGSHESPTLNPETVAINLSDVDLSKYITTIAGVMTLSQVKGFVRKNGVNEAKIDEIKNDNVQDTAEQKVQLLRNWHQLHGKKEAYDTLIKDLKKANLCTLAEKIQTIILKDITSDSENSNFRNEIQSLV

UniProt Q00609, sequence (Q00609 38-306): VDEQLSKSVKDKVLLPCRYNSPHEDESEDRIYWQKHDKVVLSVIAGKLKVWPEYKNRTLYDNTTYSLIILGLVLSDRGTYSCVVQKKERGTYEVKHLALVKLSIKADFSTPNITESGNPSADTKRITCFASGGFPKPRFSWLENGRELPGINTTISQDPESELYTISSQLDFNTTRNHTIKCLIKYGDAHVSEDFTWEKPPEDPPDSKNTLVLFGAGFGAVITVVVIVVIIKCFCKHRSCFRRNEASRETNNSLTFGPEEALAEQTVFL
UniProt P42082, sequence (P42082 24-309): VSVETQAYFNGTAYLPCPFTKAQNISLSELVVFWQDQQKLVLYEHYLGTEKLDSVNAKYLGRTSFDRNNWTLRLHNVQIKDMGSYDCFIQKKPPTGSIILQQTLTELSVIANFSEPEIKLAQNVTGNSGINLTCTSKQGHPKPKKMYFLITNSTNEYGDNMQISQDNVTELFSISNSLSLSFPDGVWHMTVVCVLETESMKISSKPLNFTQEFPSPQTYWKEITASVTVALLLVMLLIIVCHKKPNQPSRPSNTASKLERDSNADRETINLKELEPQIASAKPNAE

For CTLA4Ig (from Repligen) (Fc fusion), the viability of the activated T cells at 72 hrs in assay [1] and in assay [2] was 20% throughout. In the assay with Fas (human), “CH-11 anti-Fas monoclonal antibody (Panvera)” registered a viability of Jurkat Neo control clones after Fas antibody at 10 ng/ml of less than 10%.
